Experimental data as given in publication PMC8319308.

Biological target: Gx-SB (protein G adapter domain fused to the small BiT fragment of split NanoLuc) (UniProt P06654)
Assay: other; 4C2-SB (SB1) conjugate with 19C7-LB; LB-SB affinity

Gx-LB (protein G adapter domain fused to the large BiT fragment of split NanoLuc) (from UniProt P06654)
Kd: 2.5 µM
